We go through 9 molecules from patent publication US20200087373A1 (UNIVERSITY OF COPENHAGEN, published 2020).

Ends that are not written are not given here. * marks the point of attachment. C16 diacid = O=C(O)CCCCCCCCCCCCCCC(=O)*; Palmitoyl = CCCCCCCCCCCCCCCC(=O)*; Lauroyl = CCCCCCCCCCCC(=O)*

The experiment deals with T1, human GIP receptor (human, UniProt P48546 22-466).
T1 construct: whole, on cells; also called hGIPR
T1 sequence (looked up): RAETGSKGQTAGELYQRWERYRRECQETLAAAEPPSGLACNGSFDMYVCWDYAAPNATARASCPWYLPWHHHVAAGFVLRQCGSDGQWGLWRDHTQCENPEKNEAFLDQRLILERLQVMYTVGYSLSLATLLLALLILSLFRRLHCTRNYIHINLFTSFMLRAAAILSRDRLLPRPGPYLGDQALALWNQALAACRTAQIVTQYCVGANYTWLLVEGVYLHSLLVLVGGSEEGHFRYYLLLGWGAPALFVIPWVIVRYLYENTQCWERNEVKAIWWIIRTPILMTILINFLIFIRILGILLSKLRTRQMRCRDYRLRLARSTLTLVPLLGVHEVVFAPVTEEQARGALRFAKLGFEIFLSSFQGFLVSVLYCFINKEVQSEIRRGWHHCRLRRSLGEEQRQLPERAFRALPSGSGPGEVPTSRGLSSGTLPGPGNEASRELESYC
Put plainly: 125I-hGIP competition binding, COS-7 cells expressing hGIPR.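 Note: nonspecific binding taken as radioligand bound by untransfected cells, binding buffer with or without 2% HSA.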

B1: AT145 [hGIP(5-30)NH2[H18K]-C16/18] (peptide)
peptide: TFISDYSIAMDKIK(Palmitoyl)QQDFVNWLLAQK-NH2
modifications: N-terminus assumed
SMILES: CCCCCCCCCCCCCCCC(=O)NCCCC[C@H](NC(=O)[C@@H](NC(=O)[C@H](CCCCN)NC(=O)[C@H](CC(=O)O)NC(=O)[C@H](CCSC)NC(=O)[C@H](C)NC(=O)[C@@H](NC(=O)[C@H](CO)NC(=O)[C@H](Cc1ccc(O)cc1)NC(=O)[C@H](CC(=O)O)NC(=O)[C@H](CO)NC(=O)[C@@H](NC(=O)[C@H](Cc1ccccc1)NC(=O)[C@@H](N)[C@@H](C)O)[C@@H](C)CC)[C@@H](C)CC)[C@@H](C)CC)C(=O)N[C@@H](CCC(N)=O)C(=O)N[C@@H](CCC(N)=O)C(=O)N[C@@H](CC(=O)O)C(=O)N[C@@H](Cc1ccccc1)C(=O)N[C@H](C(=O)N[C@@H](CC(N)=O)C(=O)N[C@@H](Cc1c[nH]c2ccccc12)C(=O)N[C@@H](CC(C)C)C(=O)N[C@@H](CC(C)C)C(=O)N[C@@H](C)C(=O)N[C@@H](CCC(N)=O)C(=O)N[C@@H](CCCCN)C(N)=O)C(C)C
One may read the IC50 as the midpoint of a concentration-inhibition curve. Lower therefore signals greater potency. Take B1: the IC50 was 155 nM and the “log IC50” value is -6.8 log M.

B2: AT101 [hGIP(3-30)NH2-C12/3] (peptide)
peptide: Lauroyl-EGTFISDYSIAMDKIHQQDFVNWLLAQK-NH2
On to B2, for which the IC50 turned out to be 9.9 nM and the “log IC50” value is -8 log M.

B3: AT107 [hGIP(3-30)NH2[T5W; D15E; H18A]-C16/16] (peptide)
peptide: EGWFISDYSIAMEK(Palmitoyl)IAQQDFVNWLLAQK-NH2
modifications: N-terminus assumed
SMILES: CCCCCCCCCCCCCCCC(=O)NCCCC[C@H](NC(=O)[C@H](CCC(=O)O)NC(=O)[C@H](CCSC)NC(=O)[C@H](C)NC(=O)[C@@H](NC(=O)[C@H](CO)NC(=O)[C@H](Cc1ccc(O)cc1)NC(=O)[C@H](CC(=O)O)NC(=O)[C@H](CO)NC(=O)[C@@H](NC(=O)[C@H](Cc1ccccc1)NC(=O)[C@H](Cc1c[nH]c2ccccc12)NC(=O)CNC(=O)[C@@H](N)CCC(=O)O)[C@@H](C)CC)[C@@H](C)CC)C(=O)N[C@H](C(=O)N[C@@H](C)C(=O)N[C@@H](CCC(N)=O)C(=O)N[C@@H](CCC(N)=O)C(=O)N[C@@H](CC(=O)O)C(=O)N[C@@H](Cc1ccccc1)C(=O)N[C@H](C(=O)N[C@@H](CC(N)=O)C(=O)N[C@@H](Cc1c[nH]c2ccccc12)C(=O)N[C@@H](CC(C)C)C(=O)N[C@@H](CC(C)C)C(=O)N[C@@H](C)C(=O)N[C@@H](CCC(N)=O)C(=O)N[C@@H](CCCCN)C(N)=O)C(C)C)[C@@H](C)CC
In the case of B3, the half-inhibitory concentration (IC50) came out at 5220 nM and the “log IC50” value was -5.3 log M.

B4: AT144 [hGIP(3-30)NH2[K16R; H18K; K30R]-C16/18] (peptide)
peptide: EGTFISDYSIAMDRIK(Palmitoyl)QQDFVNWLLAQR-NH2
modifications: N-terminus assumed
SMILES: CCCCCCCCCCCCCCCC(=O)NCCCC[C@H](NC(=O)[C@@H](NC(=O)[C@H](CCCNC(=N)N)NC(=O)[C@H](CC(=O)O)NC(=O)[C@H](CCSC)NC(=O)[C@H](C)NC(=O)[C@@H](NC(=O)[C@H](CO)NC(=O)[C@H](Cc1ccc(O)cc1)NC(=O)[C@H](CC(=O)O)NC(=O)[C@H](CO)NC(=O)[C@@H](NC(=O)[C@H](Cc1ccccc1)NC(=O)[C@@H](NC(=O)CNC(=O)[C@@H](N)CCC(=O)O)[C@@H](C)O)[C@@H](C)CC)[C@@H](C)CC)[C@@H](C)CC)C(=O)N[C@@H](CCC(N)=O)C(=O)N[C@@H](CCC(N)=O)C(=O)N[C@@H](CC(=O)O)C(=O)N[C@@H](Cc1ccccc1)C(=O)N[C@H](C(=O)N[C@@H](CC(N)=O)C(=O)N[C@@H](Cc1c[nH]c2ccccc12)C(=O)N[C@@H](CC(C)C)C(=O)N[C@@H](CC(C)C)C(=O)N[C@@H](C)C(=O)N[C@@H](CCC(N)=O)C(=O)N[C@@H](CCCNC(=N)N)C(N)=O)C(C)C
For B4, the IC50 amounted to 297 nM and the “log IC50” value was -6.53 log M.

B5: AT153 [hGIP(3-30)NH2[H18R; K30R]-C12/16] (peptide)
peptide: EGTFISDYSIAMDK(Lauroyl)IRQQDFVNWLLAQR-NH2
modifications: N-terminus assumed
SMILES: CCCCCCCCCCCC(=O)NCCCC[C@H](NC(=O)[C@H](CC(=O)O)NC(=O)[C@H](CCSC)NC(=O)[C@H](C)NC(=O)[C@@H](NC(=O)[C@H](CO)NC(=O)[C@H](Cc1ccc(O)cc1)NC(=O)[C@H](CC(=O)O)NC(=O)[C@H](CO)NC(=O)[C@@H](NC(=O)[C@H](Cc1ccccc1)NC(=O)[C@@H](NC(=O)CNC(=O)[C@@H](N)CCC(=O)O)[C@@H](C)O)[C@@H](C)CC)[C@@H](C)CC)C(=O)N[C@H](C(=O)N[C@@H](CCCNC(=N)N)C(=O)N[C@@H](CCC(N)=O)C(=O)N[C@@H](CCC(N)=O)C(=O)N[C@@H](CC(=O)O)C(=O)N[C@@H](Cc1ccccc1)C(=O)N[C@H](C(=O)N[C@@H](CC(N)=O)C(=O)N[C@@H](Cc1c[nH]c2ccccc12)C(=O)N[C@@H](CC(C)C)C(=O)N[C@@H](CC(C)C)C(=O)N[C@@H](C)C(=O)N[C@@H](CCC(N)=O)C(=O)N[C@@H](CCCNC(=N)N)C(N)=O)C(C)C)[C@@H](C)CC
B5: the IC50 is 316 nM and the “log IC50” value was -7 log M.

B6: AT131 [hGIP(3-30)NH2[D15E; H18A]-C16/16] (peptide)
peptide: EGTFISDYSIAMEK(Palmitoyl)IAQQDFVNWLLAQK-NH2
modifications: N-terminus assumed
SMILES: CCCCCCCCCCCCCCCC(=O)NCCCC[C@H](NC(=O)[C@H](CCC(=O)O)NC(=O)[C@H](CCSC)NC(=O)[C@H](C)NC(=O)[C@@H](NC(=O)[C@H](CO)NC(=O)[C@H](Cc1ccc(O)cc1)NC(=O)[C@H](CC(=O)O)NC(=O)[C@H](CO)NC(=O)[C@@H](NC(=O)[C@H](Cc1ccccc1)NC(=O)[C@@H](NC(=O)CNC(=O)[C@@H](N)CCC(=O)O)[C@@H](C)O)[C@@H](C)CC)[C@@H](C)CC)C(=O)N[C@H](C(=O)N[C@@H](C)C(=O)N[C@@H](CCC(N)=O)C(=O)N[C@@H](CCC(N)=O)C(=O)N[C@@H](CC(=O)O)C(=O)N[C@@H](Cc1ccccc1)C(=O)N[C@H](C(=O)N[C@@H](CC(N)=O)C(=O)N[C@@H](Cc1c[nH]c2ccccc12)C(=O)N[C@@H](CC(C)C)C(=O)N[C@@H](CC(C)C)C(=O)N[C@@H](C)C(=O)N[C@@H](CCC(N)=O)C(=O)N[C@@H](CCCCN)C(N)=O)C(C)C)[C@@H](C)CC
As to B6, the IC50 is 6510 nM and the “log IC50” value is -5.2 log M.

B7: AT158 [hGIP(3-30)NH2[H18K]-C16diacid/18] (peptide)
peptide: EGTFISDYSIAMDKIK(C16 diacid)QQDFVNWLLAQK-NH2
modifications: N-terminus assumed
SMILES: CC[C@H](C)[C@H](NC(=O)[C@H](CO)NC(=O)[C@H](Cc1ccc(O)cc1)NC(=O)[C@H](CC(=O)O)NC(=O)[C@H](CO)NC(=O)[C@@H](NC(=O)[C@H](Cc1ccccc1)NC(=O)[C@@H](NC(=O)CNC(=O)[C@@H](N)CCC(=O)O)[C@@H](C)O)[C@@H](C)CC)C(=O)N[C@@H](C)C(=O)N[C@@H](CCSC)C(=O)N[C@@H](CC(=O)O)C(=O)N[C@@H](CCCCN)C(=O)N[C@H](C(=O)N[C@@H](CCCCNC(=O)CCCCCCCCCCCCCCC(=O)O)C(=O)N[C@@H](CCC(N)=O)C(=O)N[C@@H](CCC(N)=O)C(=O)N[C@@H](CC(=O)O)C(=O)N[C@@H](Cc1ccccc1)C(=O)N[C@H](C(=O)N[C@@H](CC(N)=O)C(=O)N[C@@H](Cc1c[nH]c2ccccc12)C(=O)N[C@@H](CC(C)C)C(=O)N[C@@H](CC(C)C)C(=O)N[C@@H](C)C(=O)N[C@@H](CCC(N)=O)C(=O)N[C@@H](CCCCN)C(N)=O)C(C)C)[C@@H](C)CC
In the case of B7, the IC50 is 8.2 nM.

B8: AT143 [hGIP(3-30)NH2[M14L; H18K]-C16/18] (peptide)
peptide: EGTFISDYSIALDKIK(Palmitoyl)QQDFVNWLLAQK-NH2
modifications: N-terminus assumed
SMILES: CCCCCCCCCCCCCCCC(=O)NCCCC[C@H](NC(=O)[C@@H](NC(=O)[C@H](CCCCN)NC(=O)[C@H](CC(=O)O)NC(=O)[C@H](CC(C)C)NC(=O)[C@H](C)NC(=O)[C@@H](NC(=O)[C@H](CO)NC(=O)[C@H](Cc1ccc(O)cc1)NC(=O)[C@H](CC(=O)O)NC(=O)[C@H](CO)NC(=O)[C@@H](NC(=O)[C@H](Cc1ccccc1)NC(=O)[C@@H](NC(=O)CNC(=O)[C@@H](N)CCC(=O)O)[C@@H](C)O)[C@@H](C)CC)[C@@H](C)CC)[C@@H](C)CC)C(=O)N[C@@H](CCC(N)=O)C(=O)N[C@@H](CCC(N)=O)C(=O)N[C@@H](CC(=O)O)C(=O)N[C@@H](Cc1ccccc1)C(=O)N[C@H](C(=O)N[C@@H](CC(N)=O)C(=O)N[C@@H](Cc1c[nH]c2ccccc12)C(=O)N[C@@H](CC(C)C)C(=O)N[C@@H](CC(C)C)C(=O)N[C@@H](C)C(=O)N[C@@H](CCC(N)=O)C(=O)N[C@@H](CCCCN)C(N)=O)C(C)C
The molecule B8 registered an IC50 of 80 nM.

B9: AT130 [hGIP(3-30)NH2[D15E; H18A]-C12/30] (peptide)
peptide: EGTFISDYSIAMEKIAQQDFVNWLLAQK(C12 fatty acyl)-NH2
As to B9, the IC50 is 1210 nM and the “log IC50” value was -5.9 log M.
